Tests used:
[1] = tested on: HeLa Kyoto; experiment: solubility in G1/S (NP-40 vs SDS abundance) (log2 ratio); higher = more soluble; conditions: cell cycle stage: G1/S
[2] = tested on: HeLa Kyoto; experiment: solubility change mitosis vs G1/S (difference of NP-40 vs SDS log2 ratios) (log2 ratio difference); higher = more soluble in mitosis
[3] = tested on: HeLa Kyoto; experiment: thermal stability score vs G1/S (z-score of summed log2 fold changes over temperatures); higher = more thermally stable than in G1/S
[4] = cell cycle stage: early G1 (4.5 h after nocodazole release)
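For solubility change mitosis vs G1/S (difference of NP-40 vs SDS log2 ratios) in this document: synchronized HeLa Kyoto cells (double thymidine block for G1/S, nocodazole release for mitosis), protein amounts in NP-40 versus SDS lysates quantified by mass spectrometry, three biological replicates.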
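For solubility in G1/S (NP-40 vs SDS abundance) in this document: HeLa Kyoto cells arrested at G1/S by double thymidine block, proteins quantified by TMT10plex mass spectrometry in mild NP-40 versus SDS extracts, three biological replicates.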
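For thermal stability score vs G1/S (z-score of summed log2 fold changes over temperatures) in this document: synchronized HeLa Kyoto cells, proteins quantified by TMT10plex mass spectrometry, three biological replicates, mitosis taken 0.5 h after nocodazole release, G1/S directly after double thymidine block.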

MAKAAASSSLEDLDLSGEEVQRLTSAFQDPEFRRMFSQYAEELTDPENRRRYEAEITALERERGVEVRFVHPEPGHVLRTSLDGARRCFVNVCSNALVGAPSSRPGSGGDRGAAPGSHWSLPYSLAPGREYAGRSSSRYMVYDVVFHPDALALARRHEGFRQMLDATALEAVEKQFGVKLDRRNAKTLKAKYKGTPEAAVLRTPLPGVIPARPDGEPKGPLPDFPYPYQYPAAPGPRAPSPPEAALQPAPTEPRYSVVQRHHVDLQDYRCSRDSAPSPVPHELVITIELPLLRSAEQAALEVTRKLLCLDSRKPDYRLRLSLPYPVDDGRGKAQFNKARRQLVVTLPVVLPAARREPAVAVAAAAPEESADRSGTDGQACASAREGEAGPARSRAEDGGHDTCVAGAAGSGVTTLGDPEVAPPPAAAGEERVPKPGEQDLSRHAGSPPGSVEEPSPGGENSPGGGGSPCLSSRSLAWGSSAGRESARGDSSVETREESEGTGGQRSACAMGGPGTKSGEPLCPPLLCNQDKETLTLLIQVPRIQPQSLQGDLNPLWYKLRFSAQDLVYSFFLQFAPENKLSTTEPVISISSNNAVIELAKSPESHGHWREWYYGVNNDSLEERLFVNEENVNEFLEEVLSSPFKQSMSLTPPLIEVLQVTDNKIQINAKLQECSNSDQLQGKEERVNEESHLTEKEYIEHCNTPTTDSDSSIAVKALQIDSFGLVTCFQQESLDVSQMILGKSQQPESKMQSEFIKEKSATCSNEEKDNLNESVITEEKETDGDHLSSLLNKTTVHNIPGFDSIKETNMQDGSVQVIKDHVTNCAFSFQNSLLYDLD [DNAAF2]
solubility in G1/S (log2) [1]: -0.0763 | solubility change mitosis (log2) [2]: 0.11 | thermal stability score [3, 4]: -0.286 | thermal stability score ([3]; cell cycle stage: mitosis): -0.17

MALAVLRVLEPFPTETPPLAVLLPPGGPWPAAELGLVLALRPAGESPAGPALLVAALEGPDAGTEEQGPGPPQLLVSRALLRLLALGSGAWVRARAVRRPPALGWALLGTSLGPGLGPRVGPLLVRRGETLPVPGPRVLETRPALQGLLGPGTRLAVTELRGRARLCPESGDSSRPPPPPVVSSFAVSGTVRRLQGVLGGTGDSLGVSRSCLRGLGLFQGEWVWVAQARESSNTSQPHLARVQVLEPRWDLSDRLGPGSGPLGEPLADGLALVPATLAFNLGCDPLEMGELRIQRYLEGSIAPEDKGSCSLLPGPPFARELHIEIVSSPHYSTNGNYDGVLYRHFQIPRVVQEGDVLCVPTIGQVEILEGSPEKLPRWREMFFKVKKTVGEAPDGPASAYLADTTHTSLYMVGSTLSPVPWLPSEESTLWSSLSPPGLEALVSELCAVLKPRLQPGGALLTGTSSVLLRGPPGCGKTTVVAAACSHLGLHLLKVPCSSLCAESSGAVETKLQAIFSRARRCRPAVLLLTAVDLLGRDRDGLGEDARVMAVLRHLLLNEDPLNSCPPLMVVATTSRAQDLPADVQTAFPHELEVPALSEGQRLSILRALTAHLPLGQEVNLAQLARRCAGFVVGDLYALLTHSSRAACTRIKNSGLAGGLTEEDEGELCAAGFPLLAEDFGQALEQLQTAHSQAVGAPKIPSVSWHDVGGLQEVKKEILETIQLPLEHPELLSLGLRRSGLLLHGPPGTGKTLLAKAVATECSLTFLSVKGPELINMYVGQSEENVREVFARARAAAPCIIFFDELDSLAPSRGRSGDSGGVMDRVVSQLLAELDGLHSTQDVFVIGATNRPDLLDPALLRPGRFDKLVFVGANEDRASQLRVLSAITRKFKLEPSVSLVNVLDCCPPQLTGADLYSLCSDAMTAALKRRVHDLEEGLEPGSSALMLTMEDLLQAAARLQPSVSEQELLRYKRIQRKFAAC [PEX6]
solubility in G1/S (log2) [1]: 0.167 | solubility change mitosis (log2) [2]: -0.158 | thermal stability score [3, 4]: -0.844 | thermal stability score ([3]; cell cycle stage: mitosis): -0.711

MALVSADSRIAELLTELHQLIKQTQEERSRSEHNLVNIQKTHERMQTENKISPYYRTKLRGLYTTAKADAEAECNILRKALDKIAEIKSLLEERRIAAKIAGLYNDSEPPRKTMRRGVLMTLLQQSAMTLPLWIGKPGDKPPPLCGAIPASGDYVARPGDKVAARVKAVDGDEQWILAEVVSYSHATNKYEVDDIDEEGKERHTLSRRRVIPLPQWKANPETDPEALFQKEQLVLALYPQTTCFYRALIHAPPQRPQDDYSVLFEDTSYADGYSPPLNVAQRYVVACKEPKKK [SGF29]
solubility in G1/S (log2) [1]: 0.435 | solubility change mitosis (log2) [2]: 0.314 | thermal stability score [3, 4]: -0.0915 | thermal stability score ([3]; cell cycle stage: mitosis): -0.207

MAMQMQLEANADTSVEEESFGPQPISRLEQCGINANDVKKLEEAGFHTVEAVAYAPKKELINIKGISEAKADKILAEAAKLVPMGFTTATEFHQRRSEIIQITTGSKELDKLLQGGIETGSITEMFGEFRTGKTQICHTLAVTCQLPIDRGGGEGKAMYIDTEGTFRPERLLAVAERYGLSGSDVLDNVAYARAFNTDHQTQLLYQASAMMVESRYALLIVDSATALYRTDYSGRGELSARQMHLARFLRMLLRLADEFGVAVVITNQVVAQVDGAAMFAADPKKPIGGNIIAHASTTRLYLRKGRGETRICKIYDSPCLPEAEAMFAINADGVGDAKD [RAD51]
solubility in G1/S (log2) [1]: -0.073 | solubility change mitosis (log2) [2]: -0.238 | thermal stability score [3, 4]: -1.12 | thermal stability score ([3]; cell cycle stage: mitosis): -1.89

MANSMNGRNPGGRGGNPRKGRILGIIDAIQDAVGPPKQAAADRRTVEKTWKLMDKVVRLCQNPKLQLKNSPPYILDILPDTYQHLRLILSKYDDNQKLAQLSENEYFKIYIDSLMKKSKRAIRLFKEGKERMYEEQSQDRRNLTKLSLIFSHMLAEIKAIFPNGQFQGDNFRITKADAAEFWRKFFGDKTIVPWKVFRQCLHEVHQISSGLEAMALKSTIDLTCNDYISVFEFDIFTRLFQPWGSILRNWNFLAVTHPGYMAFLTYDEVKARLQKYSTKPGSYIFRLSCTRLGQWAIGYVTGDGNILQTIPHNKPLFQALIDGSREGFYLYPDGRSYNPDLTGLCEPTPHDHIKVTQEQYELYCEMGSTFQLCKICAENDKDVKIEPCGHLMCTSCLTAWQESDGQGCPFCRCEIKGTEPIIVDPFDPRDEGSRCCSIIDPFGMPMLDLDDDDDREESLMMNRLANVRKCTDRQNSPVTSPGSSPLAQRRKPQPDPLQIPHLSLPPVPPRLDLIQKGIVRSPCGSPTGSPKSSPCMVRKQDKPLPAPPPPLRDPPPPPPERPPPIPPDNRLSRHIHHVESVPSRDPPMPLEAWCPRDVFGTNQLVGCRLLGEGSPKPGITASSNVNGRHSRVGSDPVLMRKHRRHDLPLEGAKVFSNGHLGSEEYDVPPRLSPPPPVTTLLPSIKCTGPLANSLSEKTRDPVEEDDDEYKIPSSHPVSLNSQPSHCHNVKPPVRSCDNGHCMLNGTHGPSSEKKSNIPDLSIYLKGDVFDSASDPVPLPPARPPTRDNPKHGSSLNRTPSDYDLLIPPLGEDAFDALPPSLPPPPPPARHSLIEHSKPPGSSSRPSSGQDLFLLPSDPFVDLASGQVPLPPARRLPGENVKTNRTSQDYDQLPSCSDGSQAPARPPKPRPRRTAPEIHHRKPHGPEAALENVDAKIAKLMGEGYAFEEVKRALEIAQNNVEVARSILREFAFPPPVSPRLNL [CBLB]
solubility in G1/S (log2) [1]: -0.447 | solubility change mitosis (log2) [2]: 0.0975 | thermal stability score [3, 4]: -0.843 | thermal stability score ([3]; cell cycle stage: mitosis): -0.129

MAPSLWKGLVGIGLFALAHAAFSAAQHRSYMRLTEKEDESLPIDIVLQTLLAFAVTCYGIVHIAGEFKDMDATSELKNKTFDTLRNHPSFYVFNHRGRVLFRPSDTANSSNQDALSSNTSLKLRKLESLRR [MMGT1]
solubility in G1/S (log2) [1]: -0.125 | solubility change mitosis (log2) [2]: -0.109 | thermal stability score [3, 4]: -0.869 | thermal stability score ([3]; cell cycle stage: mitosis): -1.57

MASDASHALEAALEQMDGIIAGTKTGADLSDGTCEPGLASPASYMNPFPVLHLIEDLRLALEMLELPQERAALLSQIPGPTAAYIKEWFEESLSQVNHHSAASNETYQERLARLEGDKESLILQVSVLTDQVEAQGEKIRDLEVCLEGHQVKLNAAEEMLQQELLSRTSLETQKLDLMTEVSELKLKLVGMEKEQREQEEKQRKAEELLQELRHLKIKVEELENERNQYEWKLKATKAEVAQLQEQVALKDAEIERLHSQLSRTAALHSESHTERDQEIQRLKMGMETLLLANEDKDRRIEELTGLLNQYRKVKEIVMVTQGPSERTLSINEEEPEGGFSKWNATNKDPEELFKQEMPPRCSSPTVGPPPLPQKSLETRAQKKLSCSLEDLRSESVDKCMDGNQPFPVLEPKDSPFLAEHKYPTLPGKLSGATPNGEAAKSPPTICQPDATGSSLLRLRDTESGWDDTAVVNDLSSTSSGTESGPQSPLTPDGKRNPKGIKKFWGKIRRTQSGNFYTDTLGMAEFRRGGLRATAGPRLSRTRDSKGQKSDANAPFAQWSTERVCAWLEDFGLAQYVIFARQWVSSGHTLLTATPQDMEKELGIKHPLHRKKLVLAVKAINTKQEEKSALLDHIWVTRWLDDIGLPQYKDQFHESRVDRRMLQYLTVNDLLFLKVTSQLHHLSIKCAIHVLHVNKFNPHCLHRRPADESNLSPSEVVQWSNHRVMEWLRSVDLAEYAPNLRGSGVHGGLIILEPRFTGDTLAMLLNIPPQKTLLRRHLTTKFNALIGPEAEQEKREKMASPAYTPLTTTAKVRPRKLGFSHFGNIRKKKFDESTDYICPMEPSDGVSDSHRVYSGYRGLSPLDAPELDGLDQVGQIS [PPFIBP2]
solubility in G1/S (log2) [1]: 0.218 | solubility change mitosis (log2) [2]: -0.265 | thermal stability score [3, 4]: 0.328 | thermal stability score ([3]; cell cycle stage: mitosis): 0.498

MATAPSYPAGLPGSPGPGSPPPPGGLELQSPPPLLPQIPAPGSGVSFHIQIGLTREFVLLPAASELAHVKQLACSIVDQKFPECGFYGLYDKILLFKHDPTSANLLQLVRSSGDIQEGDLVEVVLSASATFEDFQIRPHALTVHSYRAPAFCDHCGEMLFGLVRQGLKCDGCGLNYHKRCAFSIPNNCSGARKRRLSSTSLASGHSVRLGTSESLPCTAEELSRSTTELLPRRPPSSSSSSSASSYTGRPIELDKMLLSKVKVPHTFLIHSYTRPTVCQACKKLLKGLFRQGLQCKDCKFNCHKRCATRVPNDCLGEALINGDVPMEEATDFSEADKSALMDESEDSGVIPGSHSENALHASEEEEGEGGKAQSSLGYIPLMRVVQSVRHTTRKSSTTLREGWVVHYSNKDTLRKRHYWRLDCKCITLFQNNTTNRYYKEIPLSEILTVESAQNFSLVPPGTNPHCFEIVTANATYFVGEMPGGTPGGPSGQGAEAARGWETAIRQALMPVILQDAPSAPGHAPHRQASLSISVSNSQIQENVDIATVYQIFPDEVLGSGQFGVVYGGKHRKTGRDVAVKVIDKLRFPTKQESQLRNEVAILQSLRHPGIVNLECMFETPEKVFVVMEKLHGDMLEMILSSEKGRLPERLTKFLITQILVALRHLHFKNIVHCDLKPENVLLASADPFPQVKLCDFGFARIIGEKSFRRSVVGTPAYLAPEVLLNQGYNRSLDMWSVGVIMYVSLSGTFPFNEDEDINDQIQNAAFMYPASPWSHISAGAIDLINNLLQVKMRKRYSVDKSLSHPWLQEYQTWLDLRELEGKMGERYITHESDDARWEQFAAEHPLPGSGLPTDRDLGGACPPQDHDMQGLAERISVL [PRKD2]
solubility in G1/S (log2) [1]: -0.115 | solubility change mitosis (log2) [2]: -0.188 | thermal stability score [3, 4]: 0.521 | thermal stability score ([3]; cell cycle stage: mitosis): 0.296

MAVEDEGLRVFQSVKIKIGEAKNLPSYPGPSKMRDCYCTVNLDQEEVFRTKIVEKSLCPFYGEDFYCEIPRSFRHLSFYIFDRDVFRRDSIIGKVAIQKEDLQKYHNRDTWFQLQHVDADSEVQGKVHLELRLSEVITDTGVVCHKLATRIVECQGLPIVNGQCDPYATVTLAGPFRSEAKKTKVKRKTNNPQFDEVFYFEVTRPCSYSKKSHFDFEEEDVDKLEIRVDLWNASNLKFGDEFLGELRIPLKVLRQSSSYEAWYFLQPRDNGSKSLKPDDLGSLRLNVVYTEDHVFSSDYYSPLRDLLLKSADVEPVSASAAHILGEVCREKQEAAVPLVRLFLHYGRVVPFISAIASAEVKRTQDPNTIFRGNSLASKCIDETMKLAGMHYLHVTLKPAIEEICQSHKPCEIDPVKLKDGENLENNMENLRQYVDRVFHAITESGVSCPTVMCDIFFSLREAAAKRFQDDPDVRYTAVSSFIFLRFFAPAILSPNLFQLTPHHTDPQTSRTLTLISKTVQTLGSLSKSKSASFKESYMATFYEFFNEQKYADAVKNFLDLISSSGRRDPKSVEQPIVLKEGFMIKRAQGRKRFGMKNFKKRWFRLTNHEFTYHKSKGDQPLYSIPIENILAVEKLEEESFKMKNMFQVIQPERALYIQANNCVEAKDWIDILTKVSQCNQKRLTVYHPSAYLSGHWLCCRAPSDSAPGCSPCTGGLPANIQLDIDGDRETERIYSLFNLYMSKLEKMQEACGSKSVYDGPEQEEYSTFVIDDPQETYKTLKQVIAGVGALEQEHAQYKRDKFKKTKYGSQEHPIGDKSFQNYIRQQSETSTHSI [RASA3]
solubility in G1/S (log2) [1]: -0.118 | solubility change mitosis (log2) [2]: -0.19 | thermal stability score [3, 4]: 0.315 | thermal stability score ([3]; cell cycle stage: mitosis): 0.353

Source: the supplement of paper PMC5998384
